{"source": "paper PMC4552281", "biological_target": "FcBP-encapsulin (Fc-binding peptide inserted encapsulin protein cage nanoparticle) (Thermotoga maritima) (UniProt Q9WZP2)", "experiment": "SEC; elution of purified FcBP-encapsulin compared with encapsulin", "data": [{"substance": "FcBP-encapsulin (Fc-binding peptide inserted encapsulin protein cage nanoparticle) (from UniProt Q9WZP2 1-138; Q9WZP2 139-265) (designed binder)", "values": [{"measurement": "stoichiometry N", "result": 60}]}]}
